Data reported in patent US11278600B2, “Human alpha-galactosidase variants” (Codexis, Inc., priority 2014, dated 2022).

Experiments:
Format in all cases: biochemical
[1] = HTP-analysis of yeast culture supernatants, no challenge (MUGal hydrolysis)
Outline: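 GLA variants were expressed in INVSc1 yeast grown in SD-Ura broth with glucose at 30° C., and culture supernatants were collected after 66-84 h. Supernatant was mixed with McIlvaine buffer pH 4.8 and MUGal (2 mM stock) in 50 mM citrate, 200 mM KCl, pH 4.6, incubated at 37° C. for 30-180 minutes, then quenched with sodium carbonate.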

[2] = HTP-analysis of supernatants pretreated with acid (MUGal hydrolysis); settings: for Relative Activity of GLA Variants After Challenge at pH 3.3: activity of the variant/activity of Rd3BB (SEQ ID NO: 13), yeast supernatant; for Relative Activity of GLA Variants After Challenge at pH 3.5: activity of the variant/activity of Rd7BB (SEQ ID NO: 44)
Outline: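 Yeast INVSc1 supernatant, GLA variants; acid challenge: McIlvaine pH 3.3-4.3, 37° C., 1-3 h. Assay: MUGal in McIlvaine pH 4.8 plus citrate pH 4.3, 37° C., 30-180 min, Na2CO3 stop, Ex 355/Em 448 nm.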

[3] = HTP-analysis of supernatants pretreated with base (MUGal hydrolysis); settings: for Relative Activity of GLA Variants After Challenge at pH 9.7: activity of the variant/activity of Rd3BB (SEQ ID NO: 13), yeast supernatant; for Relative Activity of GLA Variants After Challenge at pH 7.5: activity of the variant/activity of Rd7BB (SEQ ID NO: 44)
Outline: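 GLA variants secreted from yeast INVSc1; culture supernatants pre-incubated with McIlvaine buffer pH 7.0–8.2 or 200 mM bicarbonate pH 9.1–9.7 at 37° C. for 1–18 h. Residual activity: MUGal (4 mM stock) hydrolysis at pH 4.3–4.8, 37° C., 30–180 min, carbonate quench; fluorescence Ex 355/Em 448 nm.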

[4] = activity of the variant/activity of Rd3BB (SEQ ID NO: 13), yeast supernatant
[5] = activity of the variant/activity of Rd7BB (SEQ ID NO: 44)

Molecule | Relative Activity of GLA Variants After No Challenge (NC) [1, 4] | Relative Activity of GLA Variants After Challenge at pH 3.3 [2] | Relative Activity of GLA Variants After Challenge at pH 9.7 [3] | Relative Activity of GLA Variants After No Challenge (NC) [1, 5] | Relative Activity of GLA Variants After Challenge at pH 3.5 [2] | Relative Activity of GLA Variants After Challenge at pH 7.5 [3]
631 (protein, Synthetic Polypeptide sequence of Variant No. 631 of mature Human GLA) LDNGLARTPTMGWLHWERFMCNLDCQEEPDSCISEKLFMEMAERMVTEGWKDAGYEYLCIDDCWMAPQRDSEGRLQADPQRFPHGIRQLANHVHSKGLKLGIYADVGNKTCAGFPGSFGYYDIDAQTFADWGVDLLKFDGCYCDSLENLADGYKHMSLALNRTGRPIVYSCEWPLYMWPFQKPNYTEIRQYCNHWRNFADIDDSWASIKSILDWTSRNQERIVDVAGPGGWNDPDMLVIGNFGLSWDQQVTQMALWAIMAAPLFMSNDLRAISPQAKALLQDKDVIAINQDPLGKQGYQLRKGDNFEVWERPLSGDAWAVAIINRQEIGGPRSYTIPVASLGKGVACNPACFITQLLPVKRQLGFYNWTSRLKSHINPTGTVLLQLENTQQMSLKDLL | + (+ = 1.5 to 5 relative activity over Rd3BB (SEQ ID NO: 13)) | + (+ = 1.5 to 5 relative activity over Rd3BB (SEQ ID NO: 13)) | ++ (++ = >5 to 10 relative activity over Rd3BB (SEQ ID NO: 13)) | – | – | –
665 (protein, Synthetic Polypeptide sequence of Variant No. 665 of mature Human GLA) LDNGLACTPTMGWLHWERFMCNLDCQEEPDSCISEKLFMEMAERMVTEGWKDAGYEYLCIDDCWMAPQRDSEGRLQADPQRFPHGIRQLANHVHSKGLKLGIYADVGNKTCAGFPGSFGYYDIDAQTFADWGVDLLKFDGCYCDSLENLADGYKHMSLALNRTGRPIVYSCEWPLYMWPFQKPNYTEIRQYCNHWRNFADIDDSWASIKSILDWTSRNQERIVDVAGPGGWNDPDMLVIGNFGLSWDQQVTQMALWAIMAAPLFMSNDLRAISPQAKALLQDKDVIAINQDPLGKQGYQLRKGDNFEVWERPLSGDAWAVAIINRQEIGGPRSYTIPVASLGKGVACNPACFITQLLPVKRQLGFYNATSRLKSHINPTGTVLLQLENTMQTSLKDLL | – | – | – | + (>0.5 to 1.5 relative activity over Rd7BB (SEQ ID NO: 44)) | + (>0.5 to 1.5 relative activity over Rd7BB (SEQ ID NO: 44)) | + (>0.5 to 1.5 relative activity over Rd7BB (SEQ ID NO: 44))
660 (protein, Synthetic Polypeptide sequence of Variant No. 660 of mature Human GLA) LDNGLARTPTMGWLHWERFMCNLDCQEEPDSCISEKLFEEMAERMVTEGWKDAGYEYLCIDDCWMAPQRDSEGRLQADPQRFPHGIRQLANHVHSKGLKLGIYADVGNKTCAGFPGSFGYYDIDAQTFADWGVDLLKFDGCYCDSLENLADGYKHMSLALNRTGRPIVYSCEWPLYMWPFQKPNYTEIRQYCNHWRNFADIDDSWASIKSILDWTSRNQERIVDVAGPGGWNDPDMLVIGNFGLSWDQQVTQMALWAIMAGPLFMSNDLRAISPQAKALLQDKDVIAINQDPLGKQGYQLRKGDLFEVWERPLSGDAWAVAIINRQEIGGPRSYTIPVASLGKGVACNPACFITQLLPVKRQLGFYNWTSRLKSHINPTGTVLLQLENTMQTSLKDLL | – | – | – | + (>0.5 to 1.5 relative activity over Rd7BB (SEQ ID NO: 44)) | + (>0.5 to 1.5 relative activity over Rd7BB (SEQ ID NO: 44)) | − (<0.5 relative activity to Rd7BB (SEQ ID NO: 44))
661 (protein, Synthetic Polypeptide sequence of Variant No. 661 of mature Human GLA) LDNGLARTPTMGWLHWERFMCNLDCQEEPDSCISEKLFMEMAERMVTEGWKDAGYEYLCIDDCWMAPQRDSEGRLQADPQRFPHGIRQLANHVHSKGLKLGIYADVGNKTCAGFPGSFGYYDIDAQTFADWGVDLLKFDGCYCDSLENLADGYKHMSLALNRTGRPIVYSCEWPLYMWPFQKPNYTEIRQYCNHCRNFADIDDSWASIKSILDWTSRNQERIVDVAGPGGWNDPDMLVIGNFGLSWDQQVTQMALWAIMAAPLFMSNDLRAISPQAKALLQDKDVIAINQDPLGKQGYQLRKGDNFEVWERPLSGDAWAVAIINRQEIGGPRSYTIPVASLGKGVACNPACFITQLLPVKRQLGFYNWTSRLKSHINPTGTVLLQLENTMQTSLKDLL | – | – | – | − (<0.5 relative activity to Rd7BB (SEQ ID NO: 44)) | − (<0.5 relative activity to Rd7BB (SEQ ID NO: 44)) | − (<0.5 relative activity to Rd7BB (SEQ ID NO: 44))
663 (protein, Synthetic Polypeptide sequence of Variant No. 663 of mature Human GLA) LDNGLARTPTMGWLHWERFMCNLDCQEEPDSCISEKLFMEMADRMVTEGWKDAGYEYLCIDDCWMAPQRDSEGRLQADPQRFPHGIRQLANHVHSKGLKLGIYADVGNKTCAGFPGSFGYYDIDAQTFADWGVDLLKFDGCYCDSLENLADGYKHMSLALNRTGRPIVYSCEWPLYMWPFQKPNYTEIRQYCNHWRNFADIDDSWASIKSILDWTSRNQERIVDVAGPGGWNDPDMLVIGNFGLSWDQQVTQMALWAIMAGPLFMSNDLRAISPQAKALLQDKDVIAINQDPLGKQGYQLRKGDNFEVWERPLSGDAWAVAIINRQEIGGPRSYTIPVASLGKGVACNPACFITQLLPVKRQLGFYNATSRLKSHINPTGTVLLQLENTMQTSLKDLL | – | – | – | + (>0.5 to 1.5 relative activity over Rd7BB (SEQ ID NO: 44)) | + (>0.5 to 1.5 relative activity over Rd7BB (SEQ ID NO: 44)) | − (<0.5 relative activity to Rd7BB (SEQ ID NO: 44))
664 (protein, Synthetic Polypeptide sequence of Variant No. 664 of mature Human GLA) LDNGLARTPPMGWLHWERFMCNLDCQEEPDSCISEKLFMEMAERMVTEGWKDAGYEYLCIDDCWMAPQRDSEGRLQADPQRFPHGIRQLANHVHSKGLKLGIYADVGNKTCAGFPGSFGYYDIDAQTFADWGVDLLKFDGCYCDSLENLADGYKHMSLALNRTGRPIVYSCEWPLYMWPFQKPNYTEIRQYCNHWRNFADIDDSWASIKSILDWTSRNQERIVDVAGPGGWNDPDMLVIGNFGLSWDQQVTHRELWAIMAGPLFMSNDLRAISPQAKALLQDKDVIAINQDPLGKQGYQLRKGDNFEVWERPLSGDAWAVAIINRQEIGGPRSYTIPVASLGKGVACNPACFITQLLPVKRQLGFYNWTSRLKSHINPTGTVLLQLENTMQTSLKDLL | – | – | – | − (<0.5 relative activity to Rd7BB (SEQ ID NO: 44)) | − (<0.5 relative activity to Rd7BB (SEQ ID NO: 44)) | − (<0.5 relative activity to Rd7BB (SEQ ID NO: 44))
662 (protein, Synthetic Polypeptide sequence of Variant No. 662 of mature Human GLA) LDNGLARTPTMGWLHWERFMCNLDCQEEPDSCISEKLFMEMAERMVTEGWKDAGYEYLCIDDCWMAPQRDSEGRLQADPQRFPHGIRQLANHVHSKGLKLGIYADVGNKTCAGFPGSFGYYDIDAQTFADWGVDLLKFDGCYCDSLENLADGYKHMSLALNRTGRPIVYSCEWPLYMWPFQKPNYTEIRQYCNHWRNFADIDDSWASIKSILDWTSRNQERIVDVAGPGGWNDPDMLIIGNFGLSWDQQVTQMALWAIMAAPLFMSNDLRAISPQAKALLQDKDVIAINQDPLGKQGYQLRKGDNFEVWERPLSGDAWAVAIINRQEIGGPRSYTIPVASLGKGVACNPACFITQLLPVKRQLGFYNWTSRLKSHINPTGTVLLQLENTMQTSLKDLL | – | – | – | + (>0.5 to 1.5 relative activity over Rd7BB (SEQ ID NO: 44)) | + (>0.5 to 1.5 relative activity over Rd7BB (SEQ ID NO: 44)) | + (>0.5 to 1.5 relative activity over Rd7BB (SEQ ID NO: 44))
632 (protein, Synthetic Polypeptide sequence of Variant No. 632 of mature Human GLA) LDNGLARTPTMGWLHWERFMCNLDCQEEPDSCISEKLFMEMAERMVNEGWKDAGYEYLCIDDCWMAPQRDSEGRLQADPQRFPHGIRQLANHVHSKGLKLGIYADVGNKTCAGFPGSFGYYDIDAQTFADWGVDLLKFDGCYCDSLENLADGYKHMSLALNRTGRPIVYSCEWPLYMWPFQKPNYTEIRQYCNHWRNFADIDDSWASIKSILDWTSRNQERIVDVAGPGGWNDPDMLVIGNFGLSWDQQVTQMALWAIMAAPLFMSNDLRAISPQAKALLQDKDVIAINQDPLGKQGYQLRKGDNFEVWERPLSGDAWAVAIINRQEIGGPRSYTIPVASLGKGVACNPACFITQLLPVKRQLGFYNWTSRLKSHINPTGTVLLQLENTMQTSLKDLL | + (+ = 1.5 to 5 relative activity over Rd3BB (SEQ ID NO: 13)) | ++ (++ = >5 to 10 relative activity over Rd3BB (SEQ ID NO: 13)) | ++ (++ = >5 to 10 relative activity over Rd3BB (SEQ ID NO: 13)) | – | – | –
